“Also recorded” adds a separate entry of the source.
Tests used:
[1] = tested on: FoxP3 induction in OT-I CD8 T-cells by osteoclasts; test: TcREG (FoxP3) induction in OT-I CD8 T-cells co-cultured with bone marrow-derived osteoclasts; type: cell-based, mice; conditions: 10 ng/ml or 20 ng/ml TNFα, OVA
Method: It was also determined that IL-17 and TNFα suppresses TcREG induction by osteoclasts. […] Another possibility is that loss of estrogen leads to increased production of the pro-inflammatory cytokines by T-cells that increase osteoclast activity. Without being limited to any method of operation, it is actually expected that in the presence of pro-inflammatory cytokines osteoclasts fail to induce TcREG. As estrogen depletion lead to greater number of osteoclasts because of a decreased Fas ligand expression, the loss of TcREG induction and increased osteoclast numbers would tip the balance towards increased osteoclast resorption and net bone loss. To test fir this possibility, OC-iTcREG induction was measured in the presence of IL-17 and TNFα. […] To understand the underlying mechanism of how TNFα affects osteoclasts' ability to induce TcREG, the signals provided by osteoclasts to induce FoxP3 in the CD8 T-cells were investigated along with if these signals were affected by […].
The most common and well-studied costimulatory signals on antigen-presenting cells are CD80 (B7.1) and CD86 (B7.2). As CD80/CD86 double knockout mice are commercially available, osteoclasts were generated from bone marrow precursors of these mice. The CD80/CD86 null osteoclasts (as well as wild-type controls) were then used to prime OT-I T-cells in the presence and absence of antigen. […] OT-I CD8 T-cells activated by CD80/CD86 null osteoclasts produced IL-6, IL-2 and IFN-γ to levels indistinguishable from wild-type mice (FIG. 4B). Having ruled out CD80/CD86 as the costimulatory molecules, an osteoclast microarray dataset was queried for other costimulatory molecules expressed by osteoclasts. Osteoclasts that express CD200 and c-Mer were found. The role of CD200 was chosen for testing based on the phenotype of CD200^−/− mice and the reported role for CD200 in regulating TcREG.
The most, well characterized regulator of FoxP3 in T-cells is TGFβ. It has been previously shown that neutralization or addition of TGFβ has no effect on the induction of TcREG. Therefore identification of other pathways that can regulate the FoxP3 promoter in T-cells was sought. A number of previous studies have identified that the Notch signaling contributes to FoxP3 induction. To test if Notch signaling is important for TcREG induction by osteoclasts, the γ-Secretase inhibitor DAPT was initially used. Ligation of the Notch receptor by its ligand leads to cleavage of Notch by γ-secretase. […] Next, we identified the Notch ligands expressed in osteoclasts using reverse-transcription followed by PCR. […] Of the four, the osteoclast-precursors (bone marrow cells treated with M-CSF but not RANKL) express all of the ligands except DLL4 (FIG. 5C). To assess the role of DLL4 in TcREG (soluble) DLL4-Fc was added to OT-I CD8 T-cells prior to co-culturing with osteoclasts. […] To assess the role of DLL4 in vivo the induction experiments as described in FIG. 1 were performed: GFP negative (polyclonal) CD8 T-cells were purified by cell sorting and transferred into OT-II Rag^−/− mice. Two hours prior to RANKL treatment, DLL4-Fc or a control IgG1-Fc, were injected intravenously into the recipient mice, As described for FIG. 1, RANKL (0.125 mg/kg) was then administered on two consecutive days.
DLL-4 expression is repressed in the presence of […] and IL-17 but can be de-repressed by RANKL. […]

DLL4 = DLL4 expression in mature osteoclasts by qRT-PCR; type: cell-based, mouse
Source text: DLL-4 expression is repressed in the presence of […] and IL-17 but can be de-repressed by RANKL. Having identified that DLL4 was required for osteoclasts to induce Foxp3 expression in CD8+ T cells we next tested if DLL-4 expression was affected by pro-inflammatory cytokines. […] As RANKL induced DLL4 in osteoclast precursors, it was hypothesized that adding additional RANKL may overcome the repression of DLL4 by TNFα. To assess the reversibility of DLL4 expression, mature osteoclasts were cultured overnight in 50 ng/ml RANKL and 20 ng/ml […], and then additional RANKL was added to the culture media (while maintaining 20 ng/ml TNFα) as shown in FIG. 5E. Indeed, addition of RANKL overcomes (within 24 hours) the repression of DLL4 by TNFα as assessed by qRT-PCR. […] The experiment was performed as above, but in this case FoxP3 induction in OT-I CD8 T-cells in the presence of OVA and either 10 ng/ml or 20 ng/ml TNFα was measured.
Osteoclasts seeded on day 4 at 1.5×10^6 cells/ml were used in all experiments. RNA was isolated at time point described in Figure legends. 10 to 50 ng of RNA was used for first-strand cDNA synthesis in 50 μL reaction per kit instructions (Superscript III cDNA synthesis system; Invitrogen). In all cases 10% of the cDNA product was used in a 50 μL PCR reaction that contained 10 μM each forward and reverse primers. For quantitative PCR (qPCR) SYBR green system (Invitrogen) was used. Otherwise, cDNA was amplified (25 cycles) and the products resolved on 1.2% agarose gel and visualized by ethidium bromide staining.

[2] = tested on: aortic plaque development and bone loss; test: Ovariectomized WT or LDLR-lacking female mice on Western Diet, pulsed low dose RANKL 14 days and 6 weeks post surgery; type: in vivo
Source text: With specific regards to determining an effect on atherosclerosis, ten-week old female mice that were either C57BL/6J (WT) or lacking low-density lipoprotein receptor (LDLR) were randomly assigned to chow (LabDiet 5L0B, containing 5% fat and 0.014% cholesterol, by weight) or a “Western Diet” that was high in fat and cholesterol (Teklad TD96121, containing 21% fat and 1.25% cholesterol). When the mice were 12 weeks old, all animals were surgically operated. Half the mice were ovariectomized (simulating menopause), and the other half had sham surgery. One group of ovariectomized mice on the Western Diet were treated with pulsed low dose RANKL (0.125 mg/kg) 14 days post surgery (14 weeks of age) and 6 weeks post surgery (18 weeks old). All mice were sacrificed at 20 weeks of age, and bone loss and aortic plaque development were analyzed.

B1: receptor activator of NF-κB ligand (protein, UniProt O35235 139-316, looked up)
Tumor necrosis factor ligand …: FSGAPAMMEGSWLDVAQRGKPEAQPFAHLTINAASIPSGSHKVTLSSWYHDRGWAKISNMTLSNGKLRVNQDGFYYLYANICFRHHETSGSVPTDYLQLMVYVVKTSIKIPSSHNLMKGGSTKNWSGNSEFHFYSINVGGFFKLRAGEEISIQVSNPSLLDPDQDATYFGAFKVQDID
modifications: GST tag
- restoration of TcREG induction by additional RANKL in the presence of TNFα [1]: restores induction of TcREG; also recorded: the induction of TcREG was also restored
- time for RANKL to overcome the repression of DLL4 by TNFα (DLL4; 20 ng/ml TNFα): ≤ 24 h
- DLL4 expression after additional RANKL (DLL4; mature osteoclasts, 50 ng/ml RANKL and 20 ng/ml TNFα maintained): increased the expression of DLL4; also recorded: overcomes
- plaque volume ([2]; low dose RANKL treated mice): plaque volume in low dose treated mice was also reduced
- weight gain ([2]; low dose RANKL vs without treatment): less weight gain
- inflammation ([2]; ovariectomized mice, compared to Zolendronate): reduced
- number of atherosclerotic lesions in the aortic root ([2]; ovariectomized, western diet): the number of atherosclerotic lesions in the aortic root was reduced
- osteoporosis ([2]; ovariectomized, western diet): ameliorate osteoporosis

Source: patent US10745461B2, “Pulsed introduction of low-dose RANKL as a therapy for diet-induced atherosclerosis” (Saint Louis University, priority 2015, dated 2020)
